Measured values from US20240132599A1.
“And” between values parts separate entries of the source, which are not always exact repeats. Identical values can stand only once.

These binders were tested against Vδ1 TCR on human Vδ1-positive γδ T cells (human), A0A1B0 (assay: not given).
Sequence of Vδ1 TCR on human Vδ1-positive γδ T cells (human), A0A1B0 (A0A1B0 entry or part of it mutant limits assumed): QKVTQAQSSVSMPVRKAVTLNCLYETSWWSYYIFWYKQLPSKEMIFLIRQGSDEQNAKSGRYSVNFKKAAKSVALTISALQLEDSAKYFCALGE

Row | Vδ1 TCR down-regulation (A375 co-culture): % change (at saturation) [%] | Vδ1 TCR down-regulation (A375 co-culture): EC50 [nM] | Vδ1 TCR down-regulation (A375 co-culture): EC95 [nM] | Binder
1 | 81.9 | 0.00606 | 0.0836 | ADT1-4-6/ADT3-2 (bispecific antibody) heavy: EVQLQQSGPGLVKPSQTLSLTCAISGDSVSSKSAAWNWIRQSPSRGLEWLGRTYYRSKWSTDYAASVKSRITINPDTSKNQLSLQLNSVTPEDTAVYYCARTWAGYPDVWGQGTLVTVSSASTKGPSVFPLAPSSKSTSGGTAALGCLVKDYFPEPVTVSWNSGALTSGVHTFPAVLQSSGLYSLSSVVTVPSSSLGTQTYICNVNHKPSNTKVDKKVEPKSCDKTHTCPPCPAPELAGAPSVFLFPPKPKDTLMISRTPEVTCVVVDVSHEDPEVKFNWYVDGVEVHNAKTKPREEQYNSTYRVVSVLTVLHQDWLNGKEYKCKVSNKALPAPIEKTISKAKGQPREPQVYTLPPSRDELEEGPVSLTCLVKGFYPSDIAVEWESTYGPENNYKTTPPVLDSDGSFFLYSKLTVSYWRWYKGNVFSCSVMHEALHNHYTQKSLSLSPG VL: DIQMTQSPPALSASVGDRVTITCRASQDINDWLAWYQHKPGKAPKLLIYDASSLESGVPLRFSGSGSGTEFTLTISSLQPDDFATYYCQQKYKTPQVTFGQGTRLEIK
2 | 75.3 | 0.00798 | 0.496 | ADT1-4-138/ADT3-2 (bispecific antibody) heavy: EVQLQQSGPGLVKPSQTLSLTCAISGDSVSSKSAAWNWIRQSPSRGLEWLGRTYYRSKWSTDYAASVKSRITINPDTSKNQLSLQLNSVTPEDTAVYYCARTWADYVDVWGQGTLVTVSSASTKGPSVFPLAPSSKSTSGGTAALGCLVKDYFPEPVTVSWNSGALTSGVHTFPAVLQSSGLYSLSSVVTVPSSSLGTQTYICNVNHKPSNTKVDKKVEPKSCDKTHTCPPCPAPELAGAPSVFLFPPKPKDTLMISRTPEVTCVVVDVSHEDPEVKFNWYVDGVEVHNAKTKPREEQYNSTYRVVSVLTVLHQDWLNGKEYKCKVSNKALPAPIEKTISKAKGQPREPQVYTLPPSRDELEEGPVSLTCLVKGFYPSDIAVEWESTYGPENNYKTTPPVLDSDGSFFLYSKLTVSYWRWYKGNVFSCSVMHEALHNHYTQKSLSLSPG VL: DIQMTQSPPALSASVGDRVTITCRASQDINDWLAWYQHKPGKAPKLLIYDASSLESGVPSRFSGSGSGTEFTLTISSLQPDDFATYYCQQRYSTDQVTFGQGTRLEIK

What follows are binders tested against Vδ1 TCR on human Vδ1-positive γδ T cells (human), A0A1B0 (assay: cell-based or functional assay).

Row | Binder | IC50 TCR downregulation (soluble assay, added in solution) [nM] | IC50 TCR DR (no THP-1) | IC90 TCR DR (noTHP-1)
3 | ADT1-4 (parental) (antibody, IgG1, V domains shown) VH: QVQLQQSGPGLVKPSQTLSLTCAISGDSVSSKSAAWNWIRQSPSRGLEWLGRTYYRSKWSTDYAASVKSRITINPDTSKNQLSLQLNSVTPEDTAVYYCARTWSGYVDVWGQGTLVTVSS VL: ASDIQMTQSPPALSASVGDRVTITCRASQDINDWLAWYQHKPGKAPKLLIYDASSLESGVPSRFSGSGSGTEFTLTISSLQPDDFATYYCQQSYSTPQVTFGQGTRLEIK | 38.3 |  | 
4 | ADT1-4-6 (antibody, IgG1, V domains shown) VH: EVQLQQSGPGLVKPSQTLSLTCAISGDSVSSKSAAWNWIRQSPSRGLEWLGRTYYRSKWSTDYAASVKSRITINPDTSKNQLSLQLNSVTPEDTAVYYCARTWAGYPDVWGQGTLVTVSS VL: DIQMTQSPPALSASVGDRVTITCRASQDINDWLAWYQHKPGKAPKLLIYDASSLESGVPLRFSGSGSGTEFTLTISSLQPDDFATYYCQQKYKTPQVTFGQGTRLEIK |  | 0.48 nM | 1.9 nM and 1.91 nM
5 | ADT1-4-21 (antibody, IgG1, V domains shown) VH: EVQLQQSGPGLVKPSQTLSLTCAISGDSVSSKSVAWNWIRQSPSRGLEWLGRTYYRSKWSTDYAASVKSRITINPDTSKNQLSLQLNSVTPEDTAVYYCARTWADYVDVWGQGTLVTVSS VL: DIQMTQSPPALSASVGDRVTITCRASQDINDWLAWYQHKPGKAPKLLIYDASSLESGVPLRFSGSGSGTEFTLTISSLQPDDFATYYCQQKYSTPWVTFGQGTRLEIK |  | 0.27 nM and 0.266 nM | 0.89 nM and 0.892 nM
6 | ADT1-4-31 (antibody, IgG1, V domains shown) VH: EVQLQQSGPGLVKPSQTLSLTCAISGDSVSSKSAAWNWIRQSPSRGLEWLGRTYYRSKWSTDYAASVKSRITINPDTSKNQLSLQLNSVTPEDTAVYYCARTWVGYADVWGQGTLVTVSS VL: DIQMTQSPPALSASVGDRVTITCRASQDINDWLAWYQHKPGKAPKLLIYDASSLESGVPLRFSGSGSGTEFTLTISSLQPDDFATYYCQQRYSTPPVTFGQGTRLEIK |  | 0.24 nM and 0.245 nM | 1.1 nM and 1.09 nM
7 | ADT1-4-19 (antibody, IgG1, V domains shown) VH: EVQLQQSGPGLVKPSQTLSLTCAISGDSVSSKSAAWNWIRQSPSRGLEWLGRTYYRSKWSTDYAASVKSRITINPDTSKNQLSLQLNSVTPEDTAVYYCARTWVGYVDRWGQGTLVTVSS VL: DIQMTQSPPALSASVGDRVTITCRASQDINDWLAWYQHKPGKAPKLLIYDASSLESGVPLRFSGSGSGTEFTLTISSLQPDDFATYYCQQKYSTPKVTFGQGTRLEIK |  | 0.37 nM and 0.367 nM | 1.6 nM and 1.58 nM
8 | ADT1-4-1 (antibody, IgG1, V domains shown) VH: EVQLQQSGPGLVKPSQTLSLTCAISGDSVSSKSAAWNWIRQSPSRGLEWLGRTYYRSKWSTDYAASVKSRITINPDTSKNQLSLQLNSVTPEDTAVYYCARTWVGYADVWGQGTLVTVSS VL: DIQMTQSPPALSASVGDRVTITCRASQDINDWLAWYQHKPGKAPKLLIYDASSLESGVPLRFSGSGSGTEFTLTISSLQPDDFATYYCQQRYSTPIVTFGQGTRLEIK |  | 0.36 nM | 0.67 nM
9 | ADT1-4-2 (antibody, IgG1, V domains shown) VH: EVQLQQSGPGLVKPSQTLSLTCAISGDSVSSKSAAWNWIRQSPSRGLEWLGRTYYRSKWSTDYAASVKSRITINPDTSKNQLSLQLNSVTPEDTAVYYCARTWVGYVDRWGQGTLVTVSS VL: DIQMTQSPPALSASVGDRVTITCRASQDINDWLAWYQHKPGKAPKLLIYDASSLESGVPLRFSGSGSGTEFTLTISSLQPDDFATYYCQQKYSAPQVTFGQGTRLEIK |  | 0.31 nM | 0.83 nM and 0.834 nM

Continued, values first:

Row | IC50 TCR downregulation (soluble assay, added in solution) [nM] | IC50 TCR DR (no THP-1) | IC90 TCR DR (noTHP-1) | Binder
10 |  | 0.31 nM and 0.313 nM | 0.85 nM and 0.853 nM | ADT1-4-143 (antibody, IgG1, V domains shown) VH: EVQLLQSGPGLVKPSQTLSLTCAISGDSVSSKSAAWNWIRQSPSRGLEWLGRTYYRSKWSTDYAASVKSRITINPDTSKNQLSLQLNSVTPEDTAVYYCARTWVGYADVWGQGTLVTVSS VL: DIQMTQSPPALSASVGDRVTITCRASQDINDWLAWYQHKPGKAPKLLIYDASSLESGVPLRFSGSGSGTEFTLTISSLQPDDFATYYCQQRYSTHQVTFGQGTRLVIK
11 |  | 0.3 nM and 0.295 nM | 1.1 nM and 1.09 nM | ADT1-4-112 (antibody, IgG1, V domains shown) VH: EVQLQQSGPGLVKPSQTLSLTCAISGDSVSSKSAAWNWIRQSPSRGLEWLGRTYYRSKWSTDYAASVKSRITINPDTSKNQLSLQLNSVTPEDTAVYYCARTWVGYVDYWGQGTLVTVSS VL: DIQMTQSPPALSASVGDRVTITCRASQDINDWLAWYQHKPGKAPKLLIYDASSLESGVPLRFSGSGSGTEFTLTISSLQPDDFATYYCQQKYSQPQVTFGQGTRLEIK
12 |  | 0.25 nM and 0.254 nM | 0.7 nM and 0.698 nM | ADT1-4-53 (antibody, IgG1, V domains shown) VH: EVQLQQSGPGLVKPSQTLSLTCAISGDSVSSKSVAWNWIRQSPSRGLEWLGRTYYRSKWSTDYAASVKSRITINPDTSKNQLSLQLNSVTPEDTAVYYCARTWADYVDVWGQGTLVTVSS VL: DIQMTQSPPALSASVGDRVTITCRASQDINDWLAWYQHKPGKAPKLLIYDASSLESGVPLRFSGSGSGTEFTLTISSLQPDDFATYYCQQKYSTPQLTFGQGTRLEIK
13 |  | 8.4 nM and 8.38 nM | 38 nM and 38.3 nM | ADT1-4-138 (antibody, IgG1, V domains shown) VH: EVQLQQSGPGLVKPSQTLSLTCAISGDSVSSKSAAWNWIRQSPSRGLEWLGRTYYRSKWSTDYAASVKSRITINPDTSKNQLSLQLNSVTPEDTAVYYCARTWADYVDVWGQGTLVTVSS VL: DIQMTQSPPALSASVGDRVTITCRASQDINDWLAWYQHKPGKAPKLLIYDASSLESGVPSRFSGSGSGTEFTLTISSLQPDDFATYYCQQRYSTDQVTFGQGTRLEIK
14 |  | 0.31 nM and 0.307 nM | 1 nM | ADT1-4-86 (antibody, IgG1, V domains shown) VH: EVQLQQSGPGLVKPSQTLSLTCAISGDSVSSKSVAWNWIRQSPSRGLEWLGRTYYRSKWSTDYAASVKSRITINPDTSKNQLSLQLNSVTPEDTAVYYCARTWLGNVDVWGQGTLVTVSS VL: DIQMTQSPPALSASVGDRVTITCRASQDINDWLAWYQHKPGKAPKLLIYDASSLESGVPLRFSGSGSGTEFTLTISSLQPDDFATYYCQQKYSEPQVTFGQGTRLEIK
15 |  | 0.16 nM and 0.164 nM | 1 nM and 1.04 nM | ADT1-7-20 (antibody, IgG1, V domains shown) VH: EVQLVESGGGLVKPGGSLRLSCAASGFTFSDYYMSWIRQAPGKGLEWVSYISSSGSTIYYADSVKGRFTISRDNAKNSLYLQMNSLRAEDTAVYYCARVDYQEAFDIWGQGTLVTVSS VL: DIQMTQSPSSLSASVGDRVTIACRAGQSIGTYLNWYQQKPGKAPKLLIYVASSLQSGVPSRFSGSGSGTEFTLTISSLQPEDFATYYCQQSYSGLDTFGRGTKVEIK
16 |  | 6.3 nM and 6.26 nM | 1700 nM | ADT1-7-61 (antibody, IgG1, V domains shown) VH: EVQLVESGGGLVKPGGSLRLSCAASGFTFSDYYMSWIRQAPGKGLEWVSYISSSGSTIYYADSVKGRFTISRDNAKNSLYLQMNSLRAEDTAVYYCARDDYDDAFDIWGQGTLVTVSS VL: DIQMTQSPSSLSASVGDRVTIACRAGQSIGTYLNWYQQKPGKAPKLLIYVASSLQSGVPSRFSGSGSGTEFTLTISSLQPEDFATYYCQQSASELLTFGRGTKVEIK
17 |  | 0.16 nM and 0.161 nM | 0.79 nM | ADT1-7-3 (antibody, IgG1, V domains shown) VH: EVQLVESGGGLVKPGGSLRLSCAASGFTFSDYYMSWIRQAPGKGLEWVSYISSSGSTIYYADSVKGRFTISRDNAKNSLYLQMNSLRAEDTAVYYCARVSYAEAFDIWGQGTLVTVSS VL: DIQMTQSPSSLSASVGDRVTIACRAGQSIGTYLNWYQQKPGKAPKLLIYVASSLQSGVPSRFSGSGSGTEFTLTISSLQPEDFATYYCQQSYSGLDTFGRGTKVEIK
